Source: the supplement of paper PMC7125110
± gives the standard error. Fewer inactive variants are shown than the library holds.

B1: glmS ribozyme (parent)
chain: AUAAAAGCGCCAGAACUACAGAAAUGUAGUUGACGAGGAGGAGGUUUAUCGAAUUUUCGGCGGAUGCCUCCAAA

Variants of: B1
Experiment: self-cleavage kobs at 640 uM GlcN6P; higher = faster cleavage; RNA array
Settings: with glucosamine-6-phosphate
Summary of the method: (§1)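 Tracking of barcoded ribozyme variants used a hybridised Cy3 probe at 37 °C, after in situ transcription by E. coli RNA polymerase on sequenced MiSeq chips. The flowed solution held 40 μM to 10 mM glucosamine-6-phosphate in HEPES/KCl/Mg(OAc)2 buffer, and imaging ran over ~14 h. kobs was taken from exponential decay fits of normalised per-tile medians, and kcat and KM from weighted Michaelis–Menten fits.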
U55G U56A C71G was tested, and the “self-cleavage kobs at 640 uM GlcN6P” value was 8.05e-05 ± 1.8e-05 s⁻¹. With G37A G41C C50U U65G the “self-cleavage kobs at 640 uM GlcN6P” value was less than 1e-05 s⁻¹. In the case of A12G C58G C71U, the “self-cleavage kobs at 640 uM GlcN6P” value is reported as 9.42e-05 ± 1.7e-05 s⁻¹. U31C G41A G63C C68A was tested, and the “self-cleavage kobs at 640 uM GlcN6P” value was less than 1e-05 s⁻¹. For C11G G13A C70G, the “self-cleavage kobs at 640 uM GlcN6P” value was 0.000406 ± 0.00015 s⁻¹. For G13A A15U G35U G40C, the “self-cleavage kobs at 640 uM GlcN6P” value was less than 1e-05 s⁻¹. In the case of C10U C16U G63U, the “self-cleavage kobs at 640 uM GlcN6P” value is reported as less than 1e-05 s⁻¹. In the case of G44A U65C, the “self-cleavage kobs at 640 uM GlcN6P” value is reported as less than 1e-05 s⁻¹. For U31G G60U U65A, the “self-cleavage kobs at 640 uM GlcN6P” value was less than 1e-05 s⁻¹. U31G G37C U69G was tested, and the “self-cleavage kobs at 640 uM GlcN6P” value was 9.22e-05 ± 3.2e-05 s⁻¹. G29C A42C A48C was tested, and the “self-cleavage kobs at 640 uM GlcN6P” value was less than 1e-05 s⁻¹.

Variants of: B1
Experiment: self-cleavage kobs at 2500 uM GlcN6P; higher = faster cleavage; RNA array
Settings: with glucosamine-6-phosphate
Summary of the method: as §1
For A12U A39U G40A, the “self-cleavage kobs at 2500 uM GlcN6P” value was 0.00415 ± 0.0015 s⁻¹. For C11A U54C C58A G66C, the “self-cleavage kobs at 2500 uM GlcN6P” value was less than 1e-05 s⁻¹. With U31C G37C A48G U49G U54C C71A the “self-cleavage kobs at 2500 uM GlcN6P” value was less than 1e-05 s⁻¹. For C8G G40U G41C, the “self-cleavage kobs at 2500 uM GlcN6P” value was less than 1e-05 s⁻¹. With A33C G40U G51U U54A the “self-cleavage kobs at 2500 uM GlcN6P” value was less than 1e-05 s⁻¹. With U30G G37A A42U the “self-cleavage kobs at 2500 uM GlcN6P” value was 6.68e-05 ± 1.2e-05 s⁻¹. G37A G41C C50U U65G was tested, and the “self-cleavage kobs at 2500 uM GlcN6P” value was less than 1e-05 s⁻¹. For A14U A52C A53G U55C U57G, the “self-cleavage kobs at 2500 uM GlcN6P” value was less than 1e-05 s⁻¹. For G9A A33C A39C U57A, the “self-cleavage kobs at 2500 uM GlcN6P” value was less than 1e-05 s⁻¹. For G37A A53U U55G, the “self-cleavage kobs at 2500 uM GlcN6P” value was 0.000444 ± 9.3e-05 s⁻¹. With U30G G43U A52G C67A U69G the “self-cleavage kobs at 2500 uM GlcN6P” value was less than 1e-05 s⁻¹. For A12G C58G C71U, the “self-cleavage kobs at 2500 uM GlcN6P” value was 3.81e-05 ± 1.2e-05 s⁻¹. With G26U G32A G63A C71U the “self-cleavage kobs at 2500 uM GlcN6P” value was less than 1e-05 s⁻¹. For C11G A12C A48C, the “self-cleavage kobs at 2500 uM GlcN6P” value was less than 1e-05 s⁻¹. For U56C C67A C71G, the “self-cleavage kobs at 2500 uM GlcN6P” value was less than 1e-05 s⁻¹. In the case of G7A C11A A12U G32A G60A C61G, the “self-cleavage kobs at 2500 uM GlcN6P” value is reported as less than 1e-05 s⁻¹. In the case of A12U C34U C71U, the “self-cleavage kobs at 2500 uM GlcN6P” value is reported as less than 1e-05 s⁻¹. A12U A33C G43A C67U was tested, and the “self-cleavage kobs at 2500 uM GlcN6P” value was less than 1e-05 s⁻¹. For A36C G41U G43U G51C C58G G60A C67A, the “self-cleavage kobs at 2500 uM GlcN6P” value was less than 1e-05 s⁻¹. With G9C G40U G41U U45G the “self-cleavage kobs at 2500 uM GlcN6P” value was less than 1e-05 s⁻¹. In the case of A6G A14C G40C A53U G60C, the “self-cleavage kobs at 2500 uM GlcN6P” value is reported as less than 1e-05 s⁻¹. For G7C C11G A12U, the “self-cleavage kobs at 2500 uM GlcN6P” value was less than 1e-05 s⁻¹. In the case of G29C A42G C67G, the “self-cleavage kobs at 2500 uM GlcN6P” value is reported as 0.000111 ± 5.1e-05 s⁻¹. For U45G U57G C68A C70A, the “self-cleavage kobs at 2500 uM GlcN6P” value was less than 1e-05 s⁻¹. C11G G13A C70G was tested, and the “self-cleavage kobs at 2500 uM GlcN6P” value was 6.69e-05 ± 3.1e-05 s⁻¹. With C10A A42G U55G C67U the “self-cleavage kobs at 2500 uM GlcN6P” value was less than 1e-05 s⁻¹. G7C A12U A39G A53U was tested, and the “self-cleavage kobs at 2500 uM GlcN6P” value was less than 1e-05 s⁻¹. In the case of A15U A64G C71G, the “self-cleavage kobs at 2500 uM GlcN6P” value is reported as 5.53e-05 ± 1.5e-05 s⁻¹. For C10G C11G A36C G38C A53C G60U, the “self-cleavage kobs at 2500 uM GlcN6P” value was less than 1e-05 s⁻¹. G13U U45A U46A C58U was tested, and the “self-cleavage kobs at 2500 uM GlcN6P” value was 6.89e-05 ± 3.4e-05 s⁻¹. With A12C A33G the “self-cleavage kobs at 2500 uM GlcN6P” value was less than 1e-05 s⁻¹. With A12G A14U G66A the “self-cleavage kobs at 2500 uM GlcN6P” value was 6.8e-05 ± 1.9e-05 s⁻¹. With A15G A33U G40U G41A the “self-cleavage kobs at 2500 uM GlcN6P” value was less than 1e-05 s⁻¹. In the case of C8G A33G A52G A53G C68A U69G, the “self-cleavage kobs at 2500 uM GlcN6P” value is reported as 0.000457 ± 0.00011 s⁻¹. A12C U54G C71U was tested, and the “self-cleavage kobs at 2500 uM GlcN6P” value was 0.00338 ± 0.0011 s⁻¹. For G7U C10G G43U, the “self-cleavage kobs at 2500 uM GlcN6P” value was less than 1e-05 s⁻¹. In the case of G37C G41C U47C G59U, the “self-cleavage kobs at 2500 uM GlcN6P” value is reported as less than 1e-05 s⁻¹. For G32U G38C G40C U57C C67A, the “self-cleavage kobs at 2500 uM GlcN6P” value was less than 1e-05 s⁻¹. For C19A U31C U45G, the “self-cleavage kobs at 2500 uM GlcN6P” value was 0.000156 ± 4.3e-05 s⁻¹. A12G U45G U54G was tested, and the “self-cleavage kobs at 2500 uM GlcN6P” value was 0.000192 ± 5.5e-05 s⁻¹. G26U A33C C34A U47G was tested, and the “self-cleavage kobs at 2500 uM GlcN6P” value was less than 1e-05 s⁻¹. For C8U G13A A15G, the “self-cleavage kobs at 2500 uM GlcN6P” value was less than 1e-05 s⁻¹. For A33U G40C U46G C50U, the “self-cleavage kobs at 2500 uM GlcN6P” value was less than 1e-05 s⁻¹. For A6U G13A U49C, the “self-cleavage kobs at 2500 uM GlcN6P” value was less than 1e-05 s⁻¹. A12U A36C G59U U65A was tested, and the “self-cleavage kobs at 2500 uM GlcN6P” value was less than 1e-05 s⁻¹. In the case of C8A A53C U55C G60U C68G, the “self-cleavage kobs at 2500 uM GlcN6P” value is reported as less than 1e-05 s⁻¹. With G13C G35C G44U U56A C61U the “self-cleavage kobs at 2500 uM GlcN6P” value was less than 1e-05 s⁻¹. In the case of A39U U65C C70G, the “self-cleavage kobs at 2500 uM GlcN6P” value is reported as 0.000144 ± 3.7e-05 s⁻¹. For A12U A36G A52C C67U C71U, the “self-cleavage kobs at 2500 uM GlcN6P” value was less than 1e-05 s⁻¹. With C8A G32U A48C the “self-cleavage kobs at 2500 uM GlcN6P” value was less than 1e-05 s⁻¹. With A12U G29C A36U G44U C61G the “self-cleavage kobs at 2500 uM GlcN6P” value was less than 1e-05 s⁻¹. For A42C U65C C71G, the “self-cleavage kobs at 2500 uM GlcN6P” value was less than 1e-05 s⁻¹. For G41C A52C U55G G60C C68U, the “self-cleavage kobs at 2500 uM GlcN6P” value was less than 1e-05 s⁻¹. For A14G G32U U55G, the “self-cleavage kobs at 2500 uM GlcN6P” value was 0.000962 ± 0.00018 s⁻¹. For G40U U47G U54C, the “self-cleavage kobs at 2500 uM GlcN6P” value was 0.00079 ± 0.00014 s⁻¹. C16A G29U C68U C71U was tested, and the “self-cleavage kobs at 2500 uM GlcN6P” value was 6.71e-05 ± 2.1e-05 s⁻¹. With U31G G32U C71U the “self-cleavage kobs at 2500 uM GlcN6P” value was 0.000775 ± 0.00015 s⁻¹. G37U G44U G59A C70U was tested, and the “self-cleavage kobs at 2500 uM GlcN6P” value was less than 1e-05 s⁻¹. With C10A A48C A64U the “self-cleavage kobs at 2500 uM GlcN6P” value was less than 1e-05 s⁻¹. In the case of G32C A33C G37C A48C C71U, the “self-cleavage kobs at 2500 uM GlcN6P” value is reported as less than 1e-05 s⁻¹. For G38A G62A G63U, the “self-cleavage kobs at 2500 uM GlcN6P” value was less than 1e-05 s⁻¹. For C16A U31C G43A U47G A53G C68U, the “self-cleavage kobs at 2500 uM GlcN6P” value was 8.35e-05 ± 2.9e-05 s⁻¹. With G32C G62C C67U the “self-cleavage kobs at 2500 uM GlcN6P” value was less than 1e-05 s⁻¹. With G41A A53C U54C G60C G63U the “self-cleavage kobs at 2500 uM GlcN6P” value was less than 1e-05 s⁻¹. In the case of C16A G59U A64U C67G, the “self-cleavage kobs at 2500 uM GlcN6P” value is reported as less than 1e-05 s⁻¹. In the case of C16U G29C A64G G66C, the “self-cleavage kobs at 2500 uM GlcN6P” value is reported as 0.000347 ± 0.00011 s⁻¹. For A12C A14U A53C, the “self-cleavage kobs at 2500 uM GlcN6P” value was 8.51e-05 ± 4e-05 s⁻¹. C16U G32C A36G C58G G59C C61A was tested, and the “self-cleavage kobs at 2500 uM GlcN6P” value was less than 1e-05 s⁻¹. With G35A C50U the “self-cleavage kobs at 2500 uM GlcN6P” value was 2.72e-05 ± 1.2e-05 s⁻¹. For C8A A15C G32A, the “self-cleavage kobs at 2500 uM GlcN6P” value was less than 1e-05 s⁻¹. With G13C U30C G35C G40U U47C C50A the “self-cleavage kobs at 2500 uM GlcN6P” value was less than 1e-05 s⁻¹. With G35C A48G G51U U57G G60U the “self-cleavage kobs at 2500 uM GlcN6P” value was less than 1e-05 s⁻¹.

Variants of: B1
Experiment: self-cleavage kobs at 10000 uM GlcN6P; higher = faster cleavage; RNA array
Settings: with glucosamine-6-phosphate
Summary of the method: as §1
For U30G G37A A42U, the “self-cleavage kobs at 10000 uM GlcN6P” value was 9.36e-05 ± 2.3e-05 s⁻¹. In the case of C10A A42G U55G C67U, the “self-cleavage kobs at 10000 uM GlcN6P” value is reported as less than 1e-05 s⁻¹. For A12C A33G, the “self-cleavage kobs at 10000 uM GlcN6P” value was less than 1e-05 s⁻¹. A15G A33U G40U G41A was tested, and the “self-cleavage kobs at 10000 uM GlcN6P” value was less than 1e-05 s⁻¹. In the case of C10U C16U G63U, the “self-cleavage kobs at 10000 uM GlcN6P” value is reported as less than 1e-05 s⁻¹. In the case of G32C G62C C67U, the “self-cleavage kobs at 10000 uM GlcN6P” value is reported as less than 1e-05 s⁻¹. With G35A C50U the “self-cleavage kobs at 10000 uM GlcN6P” value was 4.87e-05 ± 8e-06 s⁻¹.
